Test results published in paper PMC9700037, “Inflammasome sensor NLRP1 disease variant M1184V promotes autoproteolysis and DPP9 complex formation by stabilizing the FIIND domain” (The Journal of Biological Chemistry, 2022).
One block for each binder: values may come before it.

Columns and labels:
[1] = biological target: T1, biotin-MBP-NLRP1 M1184V (Avi-MBP-tev-NLRP1 M1184V) (human, UniProt Q9C000 1-1473, M1184V, biotin (on the Avi tag, BirA co-expressed)); test: SPR; Biotin-FLAG-NLRP1 (from HEK293T) or biotin-MBP-NLRP1 (from Sf9, multimer fraction) or biotin-MBP immobilised on a streptavidin chip; DPP9 injected at 78-2500 nM, single-cycle kinetics, 10 mM Hepes pH 7.5, 150 mM NaCl, 0.5 mM TCEP, 0.05% Tween-20; conditions: both partners purified
T1 construct: NLRP1, human, isoform 1, residues 1-1473, natural variant M1184V; also called M1184VSf9; source: Sf9 insect cells, co-expressed with BirA, purified (multimer or void SEC fraction); not shown: Avi, N-terminal, kept; MBP, N-terminal, kept
T1 sequence (looked up): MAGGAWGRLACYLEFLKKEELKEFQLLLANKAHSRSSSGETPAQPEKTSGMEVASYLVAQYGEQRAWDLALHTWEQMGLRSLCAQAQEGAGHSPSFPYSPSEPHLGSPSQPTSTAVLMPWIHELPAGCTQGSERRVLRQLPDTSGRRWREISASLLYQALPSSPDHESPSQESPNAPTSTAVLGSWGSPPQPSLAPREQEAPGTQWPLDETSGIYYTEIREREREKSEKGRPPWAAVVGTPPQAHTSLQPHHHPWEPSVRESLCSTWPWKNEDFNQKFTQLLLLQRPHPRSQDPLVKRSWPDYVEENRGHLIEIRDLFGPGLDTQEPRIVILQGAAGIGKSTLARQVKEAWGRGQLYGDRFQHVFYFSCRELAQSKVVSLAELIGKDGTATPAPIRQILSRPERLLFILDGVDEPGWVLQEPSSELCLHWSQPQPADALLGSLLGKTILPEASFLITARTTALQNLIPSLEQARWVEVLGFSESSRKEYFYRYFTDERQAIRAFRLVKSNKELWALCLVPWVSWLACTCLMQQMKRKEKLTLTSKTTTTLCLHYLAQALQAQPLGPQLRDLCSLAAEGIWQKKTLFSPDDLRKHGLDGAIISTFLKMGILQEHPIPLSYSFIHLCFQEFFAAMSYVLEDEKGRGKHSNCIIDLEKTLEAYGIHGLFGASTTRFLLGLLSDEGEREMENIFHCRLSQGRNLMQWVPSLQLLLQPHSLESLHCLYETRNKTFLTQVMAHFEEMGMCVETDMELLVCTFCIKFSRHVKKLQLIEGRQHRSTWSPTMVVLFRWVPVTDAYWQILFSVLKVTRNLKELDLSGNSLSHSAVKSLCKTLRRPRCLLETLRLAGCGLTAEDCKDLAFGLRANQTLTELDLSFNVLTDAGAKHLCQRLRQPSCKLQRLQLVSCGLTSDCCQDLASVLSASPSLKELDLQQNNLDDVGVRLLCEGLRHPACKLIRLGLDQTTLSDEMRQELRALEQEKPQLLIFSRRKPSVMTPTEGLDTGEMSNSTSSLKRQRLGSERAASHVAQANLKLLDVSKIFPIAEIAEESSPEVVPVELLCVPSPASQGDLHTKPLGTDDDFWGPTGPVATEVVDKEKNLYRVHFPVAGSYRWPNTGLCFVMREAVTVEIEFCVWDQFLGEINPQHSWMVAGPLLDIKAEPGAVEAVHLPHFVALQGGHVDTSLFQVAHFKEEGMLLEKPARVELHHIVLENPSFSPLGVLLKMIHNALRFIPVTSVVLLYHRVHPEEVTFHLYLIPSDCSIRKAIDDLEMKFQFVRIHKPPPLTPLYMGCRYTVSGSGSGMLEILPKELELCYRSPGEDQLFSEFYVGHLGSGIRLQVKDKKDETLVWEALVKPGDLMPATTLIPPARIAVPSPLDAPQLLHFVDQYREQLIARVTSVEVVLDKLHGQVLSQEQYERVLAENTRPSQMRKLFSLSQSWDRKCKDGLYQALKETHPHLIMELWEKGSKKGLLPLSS

Biotin-FLAG-NLRP1 M1184V = biological target: T2, Biotin-FLAG-NLRP1 M1184V (human, UniProt Q9C000 1-1473, M1184V, biotin); test: as above; conditions: both partners purified
T2 construct: NLRP1 full length, natural variant M1184V; the construct for purification from HEK293T and its biotinylation are not described in the methods; also called M1184VHEK; source: HEK293T cells, purified
T2 sequence (looked up): T1 sequence (looked up)

NLRP1-FIIND (M1184V) = biological target: T3, NLRP1-FIIND (M1184V) (human, UniProt Q9C000 1064-1376, M1184V); test: SEC-MALS; co-eluting SEC fractions of FIIND, DPP9 and free UPA co-expressed in Sf9 and co-purified; 0.5-1.0 mg/ml, Superose 6 increase (10/300) GL, buffer A without glycerol; conditions: partners not purified
T3 construct: NLRP1 FIIND domain (ZU5-UPA), human, residues 1064-1376 of isoform 1, natural variant M1184V; Mostly autocleaved between F1212 and S1213, the fragments stay together; GST is still on the protein during the GST pull-down of the co-expression experiments and is cut off by TEV before SEC, SEC-MALS and SPR; also called M1184V variant FIIND; source: also co-expressed with His6-DPP9 with or without …
T3 sequence (looked up): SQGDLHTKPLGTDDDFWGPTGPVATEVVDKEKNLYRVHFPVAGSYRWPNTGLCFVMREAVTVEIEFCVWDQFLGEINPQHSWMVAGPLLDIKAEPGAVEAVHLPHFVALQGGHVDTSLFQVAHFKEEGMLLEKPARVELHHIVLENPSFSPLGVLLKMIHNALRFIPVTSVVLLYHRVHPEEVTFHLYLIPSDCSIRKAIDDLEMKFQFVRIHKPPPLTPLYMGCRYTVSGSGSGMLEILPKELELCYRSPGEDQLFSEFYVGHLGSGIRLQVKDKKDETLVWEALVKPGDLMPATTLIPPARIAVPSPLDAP

[2] = biological target: the molecule itself; test: SEC; purified full-length MBP-NLRP1, Superose 6 increase (10/300) GL, 0.5 ml/min, buffer A (25 mM Hepes pH 7.5, 150 mM NaCl, 0.5 mM TCEP, 10% glycerol); fractions checked by SDS-PAGE

Kd [1]: 149 nM
Kd (Biotin-FLAG-NLRP1 M1184V): 144 nM
stoichiometry N (NLRP1-FIIND (M1184V)): 2 DPP9 chains per FIIND
B1: His6-tev-DPP9 (enzyme, UniProt Q86TI2 1-863, looked up)
chain: MATTGTPTADRGDAAATDDPAARFQVQKHSWDGLRSIIHGSRKYSGLIVNKAPHDFQFVQKTDESGPHSHRLYYLGMPYGSRENSLLYSEIPKKVRKEALLLLSWKQMLDHFQATPHHGVYSREEELLRERKRLGVFGITSYDFHSESGLFLFQASNSLFHCRDGGKNGFMVSPMKPLEIKTQCSGPRMDPKICPADPAFFSFINNSDLWVANIETGEERRLTFCHQGLSNVLDDPKSAGVATFVIQEEFDRFTGYWWCPTASWEGSEGLKTLRILYEEVDESEVEVIHVPSPALEERKTDSYRYPRTGSKNPKIALKLAEFQTDSQGKIVSTQEKELVQPFSSLFPKVEYIARAGWTRDGKYAWAMFLDRPQQWLQLVLLPPALFIPSTENEEQRLASARAVPRNVQPYVVYEEVTNVWINVHDIFYPFPQSEGEDELCFLRANECKTGFCHLYKVTAVLKSQGYDWSEPFSPGEDEFKCPIKEEIALTSGEWEVLARHGSKIWVNEETKLVYFQGTKDTPLEHHLYVVSYEAAGEIVRLTTPGFSHSCSMSQNFDMFVSHYSSVSTPPCVHVYKLSGPDDDPLHKQPRFWASMMEAASCPPDYVPPEIFHFHTRSDVRLYGMIYKPHALQPGKKHPTVLFVYGGPQVQLVNNSFKGIKYLRLNTLASLGYAVVVIDGRGSCQRGLRFEGALKNQMGQVEIEDQVEGLQFVAEKYGFIDLSRVAIHGWSYGGFLSLMGLIHKPQVFKVAIAGAPVTVWMAYDTGYTERYMDVPENNQHGYEAGSVALHVEKLPNEPNRLLILHGFLDENVHFFHTNFLVSQLIRAGKPYQLQIYPNERHSIRCPESGEHYEVTLLHFLQEYL
notes: dipeptidyl peptidase 9 (DPP9); Dimer by SEC-MALS (192 kDa); also called His6-DPP9; source: Sf9 insect cells, purified; also co-expressed with GST-tev-FIIND constructs in Sf9 and co-purified

B2: MBP-NLRP1 M1184V (full length) (natural protein, human, UniProt Q9C000 1-1473, looked up)
chain: T1 sequence (looked up)
notes: NLRP1, human, isoform 1, residues 1-1473, codon-optimized, natural variant M1184V; More autocleaved between F1212 and S1213 than the wt; source: Sf9 insect cells, purified (MBPTrap, SEC); not shown: MBP, N-terminal, kept
binding result [2]: binds
